For the test, the target named is TACC3 (UniProt Q9Y6A5). Briefly: co-IP with anti-FLAG and anti-TACC3. The conditions noted are these: reference: wild-type stathmin1-FLAG; sites S16.

In the case of “stathmin1 (from UniProt P16949) stathmin1 S16A-FLAG”, the “binding against the reference” value is reported as “lost”.

These data come from paper PMC9552509.
